For data set [1], the system named is Saccharomyces cerevisiae. The experiment in a line: protein stability index of tFT-peptide fusion (C-terminal peptide) (PSI (0-1 scale)); higher = more stable (slower turnover). The method, then:
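MPS profiling in S. cerevisiae of the tFT-X12 degron library: putative degron peptides plus stable controls, 12 aa, fused to the C-terminus of a sfGFP-mCherry timer. Cells are FACS-sorted into 8 mCherry/sfGFP bins and deep-sequenced. PSI runs from 0 (unstable) to 1 (stable). Backgrounds are wild type, das1Δ and doa10Δ at 30 °C, and wild type, das1Δ, cdc34-1 and cdc53-1 at 37 °C; 2-3 technical replicates each.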

Data set [2] concerns Saccharomyces cerevisiae. The data set is described as above. To be noted: genetic background: wild type; temperature: 30 C.
Setting [3] is: genetic background: cdc34-1, temperature: 37 C.
Where [4] appears, read: genetic background: cdc53-1, temperature: 37 C.
Where [5] appears, read: genetic background: das1 deletion, temperature: 30 C.
Where [6] appears, read: genetic background: das1 deletion, temperature: 37 C.
The mark [7] stands for this setting: genetic background: doa10 deletion, temperature: 30 C.
[8] abbreviates: genetic background: wild type, temperature: 30 C.
The mark [9] stands for this setting: genetic background: wild type, temperature: 37 C.

± gives the standard deviation of the averaged measurements.
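Further: PSI is a weighted mean of sequencing reads over stability bins, variants kept only with over 10 reads, mCherry proximal and sfGFP distal, peptide attached via GGGS linker.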

On to SLTHTPLGVTRT, for which the protein stability index in data set [1] (setting [3]) came to 0.657 ± 0.033; in data set [1] (setting [4]) it was 0.748 ± 0.012; in data set [1] (setting [5]) it was 0.6409 ± 0.0026; in data set [1] (setting [6]) it was 0.72832 ± 0.00066; in data set [1] (setting [7]), 0.635 ± 0.013; in data set [1] (setting [8]), 0.642 ± 0.011. In addition, in data set [1] (setting [9]), the protein stability index was 0.704 ± 0.0086.

In the case of TGGGGRVSLGVG, the protein stability index in data set [1] (setting [3]) is 0.359 ± 0.066; in data set [1] (setting [4]), 0.416 ± 0.0099; in data set [1] (setting [5]), 0.356 ± 0.013; in data set [1] (setting [6]), 0.42 ± 0.0044; in data set [1] (setting [7]) it was 0.377 ± 0.0077; in data set [1] (setting [8]), 0.359 ± 0.016. The protein stability index in data set [1] (setting [9]) worked out at 0.413 ± 0.0088.

Turning to TLDWKFGWGGIG, the protein stability index was determined as 0.603 ± 0.011 in data set [1] (setting [3]); 0.579 ± 0.016 in data set [1] (setting [4]); 0.566 ± 0.024 in data set [1] (setting [5]); 0.6477 ± 0.0045 in data set [1] (setting [6]); 0.5685 ± 0.002 in data set [1] (setting [7]); 0.574 ± 0.021 in data set [1] (setting [8]). The sequence further displayed a protein stability index in data set [1] (setting [9]) of 0.645 ± 0.018.

For VLRFVYDLVSAL, the protein stability index is 0.559 ± 0.036 in data set [1] (setting [3]); 0.599 ± 0.011 in data set [1] (setting [4]); 0.531 ± 0.029 in data set [1] (setting [5]); 0.643 ± 0.036 in data set [1] (setting [6]); 0.334 ± 0.0067 in data set [1] (setting [7]); 0.342 ± 0.021 in data set [1] (setting [8]). This sequence also gave a protein stability index in data set [1] (setting [9]) of 0.435 ± 0.015.

For VQTVRLVFQVLA, the protein stability index came to 0.307 ± 0.0063 in data set [1] (setting [3]); 0.373 ± 0.049 in data set [1] (setting [4]); 0.25 ± 0.033 in data set [1] (setting [5]); 0.4 ± 0.0099 in data set [1] (setting [6]); 0.106 ± 0.0074 in data set [1] (setting [7]); 0.125 ± 0.031 in data set [1] (setting [8]). In data set [1] (setting [9]), this sequence gave a protein stability index of 0.207 ± 0.018.

With VRWALLGVVVEG, the protein stability index was determined as 0.388 ± 0.014 in data set [1] (setting [3]); 0.398 ± 0.0062 in data set [1] (setting [4]); 0.293 ± 0.029 in data set [1] (setting [5]); 0.4742 ± 0.00066 in data set [1] (setting [6]); 0.246 ± 0.0085 in data set [1] (setting [7]); 0.286 ± 0.027 in data set [1] (setting [8]). In data set [1] (setting [9]), this sequence gave a protein stability index of 0.428 ± 0.013.

As to WPCGGLRFSLPY, the protein stability index in data set [2] is 0.674 ± 0.029.

WPHGHVNTHRIG: the protein stability index in data set [2] worked out at 0.737 ± 0.038.

In data set [2], WPKNSTNHSWKW had a protein stability index of 0.744 ± 0.035.

In data set [2], WPVPPASYPALS gave a protein stability index of 0.728 ± 0.14.

For the sequence WQCRAPRFEKGV, the protein stability index in data set [2] was determined as 0.696 ± 0.08.

WQGLGGARGCML: in data set [2], the protein stability index was 0.691 ± 0.066.

In turn, WRGEMGGSGGQA yielded a protein stability index in data set [2] of 0.713 ± 0.032.

In data set [2], WRGLGWSDAGGG had a protein stability index of 0.654 ± 0.043.

On to WRGRCGPVLGFC, for which the protein stability index in data set [2] came out at 0.659 ± 0.027.

As to WRLVREGRMRGG, the protein stability index in data set [2] turned out to be 0.742 ± 0.031.

WRRGIRAKIDSI showed a protein stability index in data set [2] of 0.678 ± 0.015.

WRRPRVLWVSSR: the protein stability index in data set [2] came out at 0.637 ± 0.0079.

As for WRVFPVVSCSSS, the protein stability index in data set [2] stood at 0.6312 ± 0.0053.

For WSGKRAKGISEK, the protein stability index in data set [2] was 0.682 ± 0.04.

As for WSGVFSCTLSIT, the protein stability index in data set [2] is 0.567 ± 0.038.

In data set [2], WSPFSLISLSPP yielded a protein stability index of 0.725 ± 0.099.

Consider WSSLSCACVVPF, for which, in data set [2], the protein stability index turned out to be 0.726 ± 0.065.

With WSSTTISVQRGL, the protein stability index in data set [2] was determined as 0.7 ± 0.089.

WSSVSGEFRSLW: the protein stability index in data set [2] was found to be 0.707 ± 0.035.

In turn, WSVHGLGSVSIY had a protein stability index in data set [2] of 0.707 ± 0.014.

WSYGHVPYDYPF: the protein stability index in data set [2] came out at 0.73 ± 0.022.

With WTLSDTRHVLPV, the protein stability index in data set [2] turned out to be 0.6683 ± 0.00084.

As to WTSGCLEIFRRE, in data set [2], the protein stability index came to 0.702 ± 0.033.

Regarding WVESGGGCVGRI, the protein stability index in data set [2] came to 0.706 ± 0.039.

As to WVGSGRVWVKLG, in data set [2], the protein stability index came to 0.708 ± 0.0092.

The sequence WVGVGMRTNGLG showed a protein stability index in data set [2] of 0.679 ± 0.072.

As for WVLGGSWLRCRK, the protein stability index in data set [2] is 0.726 ± 0.014.

WVNRFVFFSPST registered a protein stability index in data set [2] of 0.615 ± 0.11.

As to WVPGAAGFTGSL, the protein stability index in data set [2] amounted to 0.74 ± 0.049.

WVVRVMYTSSGK displayed a protein stability index in data set [2] of 0.556 ± 0.035.

In data set [2], WWASFVGSFVGD returned a protein stability index of 0.878 ± 0.15.

Source of the values: the supplement of paper PMC10724198.
